Measured values taken from paper PMC4678016.

Target: capping protein (CP), purified, as used in pyrene-actin polymerization assays
Experiment: pyrene-actin seeded polymerization assay

Kd: 2.9 nM
Substance: CARMIL2-CBR (CP-binding region of human CARMIL2b, Pro-961 to Arg-1072) (from UniProt Q6F5E8-2 961-1072) (domain or fragment)
